{
  "source": "paper PMC5512170",
  "origin": "cited, not measured here",
  "target": "SNX27 PDZ (Homo sapiens) (UniProt Q96L92)",
  "experiment": "fluorescence polarization",
  "data": [
    {"substance": "ß2-AR tail C-tail (from UniProt P07550)", "values": [
      {"measurement": "Kd", "value": 17, "unit": "µM"}
    ]}
  ]
}
